Laboratory results from US8529906B2, “Compositions for inducing immune responses” (Novartis Vaccines and Diagnostics, Inc., priority 2003, dated 2013).
Entries after “also recorded” stand apart in the source; their conditions may differ.

Test system: EG7 (EL4 transfected with ovalbumin) and EL4 target cells
Test: CTL activity (51Cr release cytotoxic cell assay) of spleen cells from mice immunized with OVA formulations
Format: in vivo
Conditions: subcutaneous, dose 10 μg, boosted at 14 and 28 days; for CTL activity relative to the other OVA formulations: comparison in words; for CTL response: percent specific 51Cr release
Procedure: Ovalbumin, PLG/OVA-entrapped particles, small OVA-protein particles (250 nm) and large OVA-protein particles (2500 nm), produced as described above, were administered subcutaneously to mice (dose=10 μg). The animals were boosted at 14 and 28 days. […] two weeks following the last immunization and CTL activity assayed as described in Doe et al., Proc. Natl. Acad. Sci. (1996) 93:8578-8583.
Lymphocyte cultures were prepared as follows. Spleen cells (sc) from immunized mice were cultured in 24-well dishes at 5×10^6 cells per well. Of those cells, 1×10^6 were sensitized with synthetic epitopic peptides from EG7 (EL4 transfected with ovalbumin) and EL4 proteins at a concentration of 10 μM for 1 hour at 37° C., washed, and cocultured with the remaining 4×10^6 untreated sc in 2 ml of culture medium [50% RPMI 1640 and 50% alpha-MEM (GIBCO)] supplemented with heat-inactivated fetal serum, 5×10^−5 M 2-mercaptoethanol, antibiotics, and 5% interleukin-2 (Rat T-Stim, Collaborative Biomedical Products, Bedford, Mass.). Cells were fed with 1 ml of fresh culture medium on days 3 and 5, and cytotoxicity was assayed on day 6.
The cytotoxic cell assay was conducted as follows. EG7 (EL4 transfected with ovalbumin) and EL4 target cells used in the ^51Cr release assays express class I but not class II MHC molecules. Approximately 1×10^6 target cells were incubated in 200 μl of medium containing 50 μCi (1 Ci=37 Gbq) of ^51Cr and synthetic Ovalbumin peptides (1 μm) for 60 min and washed three times. Effector (E) cells were cultured with 5×10^3 target (T) cells at various EST ratios in 200 μl of culture medium in 96-well round-bottom tissue culture plates for 4 hours. The average cpm from duplicate wells was used to calculate percent specific ^51Cr release.

B1: small OVA-protein particles: Heat-stabilized ovalbumin protein particles formed by acetone coacervation, about 250 nm in diameter (protein, UniProt P01012 2-386, looked up)
Ovalbumin: GSIGAASMEFCFDVFKELKVHHANENIFYCPIAIMSALAMVYLGAKDSTRTQINKVVRFDKLPGFGDSIEAQCGTSVNVHSSLRDILNQITKPNDVYSFSLASRLYAEERYPILPEYLQCVKELYRGGLEPINFQTAADQARELINSWVESQTNGIIRNVLQPSSVDSQTAMVLVNAIVFKGLWEKAFKDEDTQAMPFRVTEQESKPVQMMYQIGLFRVASMASEKMKILELPFASGTMSMLVLLPDEVSGLEQLESIINFEKLTEWTSSNVMEERKIKVYLPRMKMEEKYNLTSVLMAMGITDVFSSSANLSGISSAESLKISQAVHAAHAEINEAGREVVGSAEAGVDAASVSEEFRADHPFLFCIKHIATNAVLFFGRCVSP
modifications: heat-stabilized particles
notes: Heat-stabilized ovalbumin protein particles formed by acetone coacervation, about 250 nm in diameter
CTL activity relative to the other OVA formulations: activity comparable to the large OVA-protein particles; also recorded: more active, e.g., elicited a greater immune response than the PLG/OVA-entrapped particles and ovalbumin alone formulations | CTL response: elicited a CTL response

B2: large OVA-protein particles: Heat-stabilized ovalbumin protein particles formed by acetone coacervation, about 2.5 μm in diameter (protein, UniProt P01012 2-386, looked up)
Ovalbumin: GSIGAASMEFCFDVFKELKVHHANENIFYCPIAIMSALAMVYLGAKDSTRTQINKVVRFDKLPGFGDSIEAQCGTSVNVHSSLRDILNQITKPNDVYSFSLASRLYAEERYPILPEYLQCVKELYRGGLEPINFQTAADQARELINSWVESQTNGIIRNVLQPSSVDSQTAMVLVNAIVFKGLWEKAFKDEDTQAMPFRVTEQESKPVQMMYQIGLFRVASMASEKMKILELPFASGTMSMLVLLPDEVSGLEQLESIINFEKLTEWTSSNVMEERKIKVYLPRMKMEEKYNLTSVLMAMGITDVFSSSANLSGISSAESLKISQAVHAAHAEINEAGREVVGSAEAGVDAASVSEEFRADHPFLFCIKHIATNAVLFFGRCVSP
modifications: heat-stabilized particles
notes: Heat-stabilized ovalbumin protein particles formed by acetone coacervation, about 2.5 μm in diameter
CTL activity relative to the other OVA formulations: more active, e.g., elicited a greater immune response than the PLG/OVA-entrapped particles and ovalbumin alone formulations | CTL response: elicited a CTL response
